B1: Serine/threonine-protein kinase RAD53 (Saccharomyces cerevisiae), P22216 (parent)
chain: MENITQPTQQSTQATQRFLIEKFSQEQIGENIVCRVICTTGQIPIRDLSADISQVLKEKRSIKKVWTFGRNPACDYHLGNISRLSNKHFQILLGEDGNLLLNDISTNGTWLNGQKVEKNSNQLLSQGDEITVGVGVESDILSLVIFINDKFKQCLEQNKVDRIRSNLKNTSKIASPGLTSSTASSMVANKTGIFKDFSIIDEVVGQGAFATVKKAIERTTGKTFAVKIISKRKVIGNMDGVTRELEVLQKLNHPRIVRLKGFYEDTESYYMVMEFVSGGDLMDFVAAHGAVGEDAGREISRQILTAIKYIHSMGISHRDLKPDNILIEQDDPVLVKITDFGLAKVQGNGSFMKTFCGTLAYVAPEVIRGKDTSVSPDEYEERNEYSSLVDMWSMGCLVYVILTGHLPFSGSTQDQLYKQIGRGSYHEGPLKDFRISEEARDFIDSLLQVDPNNRSTAAKALNHPWIKMSPLGSQSYGDFSQISLSQSLSQQKLLENMDDAQYEFVKAQRKLQMEQQLQEQDQEDQDGKIQGFKIPAHAPIRYTQPKSIEAETREQKLLHSNNTENVKSSKKKGNGRFLTLKPLPDSIIQESLEIQQGVNPFFIGRSEDCNCKIEDNRLSRVHCFIFKKRHAVGKSMYESPAQGLDDIWYCHTGTNVSYLNNNRMIQGTKFLLQDGDEIKIIWDKNNKFVIGFKVEINDTTGLFNEGLGMLQEQRVVLKQTAEEKDLVKKLTQMMAAQRANQPSASSSSMSAKKPPVSDTNNNGNNSVLNDLVESPINANTGNILKRIHSVSLSQSQIDPSKKVKRAKLDQTSKGPENLQFS
partner: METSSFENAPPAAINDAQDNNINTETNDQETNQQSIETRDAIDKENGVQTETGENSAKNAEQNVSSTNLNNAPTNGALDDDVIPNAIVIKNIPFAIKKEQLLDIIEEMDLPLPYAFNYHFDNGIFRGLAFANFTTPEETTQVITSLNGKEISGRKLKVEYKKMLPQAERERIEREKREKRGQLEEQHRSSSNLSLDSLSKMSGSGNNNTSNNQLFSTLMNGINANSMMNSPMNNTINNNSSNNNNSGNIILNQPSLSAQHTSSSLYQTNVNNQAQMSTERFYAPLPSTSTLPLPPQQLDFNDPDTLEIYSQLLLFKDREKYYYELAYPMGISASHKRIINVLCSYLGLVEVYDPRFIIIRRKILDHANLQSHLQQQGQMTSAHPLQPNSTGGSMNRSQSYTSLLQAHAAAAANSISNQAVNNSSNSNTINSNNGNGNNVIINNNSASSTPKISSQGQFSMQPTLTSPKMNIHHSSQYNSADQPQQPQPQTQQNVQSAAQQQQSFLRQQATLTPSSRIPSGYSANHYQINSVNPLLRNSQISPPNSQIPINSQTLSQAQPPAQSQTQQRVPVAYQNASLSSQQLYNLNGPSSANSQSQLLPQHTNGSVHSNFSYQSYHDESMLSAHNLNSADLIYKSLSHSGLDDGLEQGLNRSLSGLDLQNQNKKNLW
B2: RNA-binding protein PIN4 (Saccharomyces cerevisiae), P34217 (parent)
chain: B1 partner

One test covers variants of B1. The settings on record: with pin4_yeast PIN4, P34217.
Consider R70K, for which the “effect of a mutation on the interaction” value was “disrupting interaction”.
The same measure, in the same setting: the entry for R70A is “disrupting interaction”; for S105T it is “disrupting interaction”; for N107A it is “disrupting interaction”.

Variants of B2 are the subject of the next test. The note with it: with rad53_yeast RAD53, P22216.
Turning to T305A, the “effect of a mutation on the interaction” value is “disrupting interaction”.
